# Test: label from the status in PepcDB records
row,Sequence,protein production
1,MSVLDLPELALDCILDLLPPSGLCSMARVCSSLRERCVSDHLWEKHLKTKWGKILGPAAHREWQCYISSSTYHLDSPHHQTGNLGFAKIISLIRSLSSVFREDKQRRGYASSLPLDSSMSCYLSLETGRFWFPAQVYNRENGHVGFMLSCYDAELSYDTHTDTFQARYPPHGRRASAIEKGVTWDRIRAAPIDASPHLLHVSDSLKELKPGDHIEIQWRRNKEFPYGK,failed
2,MKNVEVLTGDPKKAILKLSAPMVVSNLIFTLYNLVDGIWVAGLGPDALSAVGLFFPIFFVFIAISFGLSVGANSAVSRRIGAKRYDAACVAATLAVAMGILVSIPMTLSVVFLNGVMVFLGADGEILRLAVDYGSIMVLGSVFLVFSNVSAGILNGEGNARMAMYANAAGSLLNMVLDPIFIYLLGYGIAGAAIASVISMALSSIVFSFWFLSGRSYVRFRVAGWNLPTVFDLLRVGMPASLSMLTMSVAFMLINRVVIETGGSEGLAAYTSAWRLIQFGFVPLFGVSAALTAVSGAAYGARNPRKIGESLNYTVKLLLAVDAAILALMVAFAPQIALIFTYTEVSAVMYEEIVRTIRIAAFVLLFAPLGVSSSAVFQGMGKGERSFAITVLRAIVFQVSLCYVLAVPFGFDGVLLGFVLGEALGCFTGFSWVRLTVRRLERCLLST,failed
3,MKLKTEPLSNEKNFSKVKKALSSIPQVRDQKFEEETNTVTIKVVCCSPEKVMDKLCSKGRGAIKLIETIDPAKHVAQKPKEPEKPKEAEKPKEPEKPKPAAAPAQGDPSSQRVTHGYNPPPMMGHPVPWSDGPNYGWSRPNGYDERPIYNSYGGWQPPPSQYGGRSHYEEEQPSCSIM,failed
4,MNENAPTHKSSHKVKTHTPVSGYHIEDLRTYPTEKLLEIANKLKVENPQEFKRQDLMFEILKTQVTQGGYILFTGILEIMPDGYGFLRGFDGSFSDGHNDTYVSPSQIRRFALRNGDIVTGQVRSPKDQEKYYALLKIEAINYSPSDEIRNRPLFDNLTPLFPDEQIKLEYEPTKVTGRMLDLFSPVGKGQRALIVAPPRTGKTELMKELAQGITSNHPEVELIILLVDERPEEVTDMQRSVKGQVFSSTFDLPANNHIRIAELVLERAKRRVEMGKDVVVLLDSITRLARAYNAVTPSSGKVLSGGVDANALHRPKRFFGAARNIEEGGSLTIIATALIETGSRMDEVIFEEFKGTGNSEIVLARNIADRRIYPAFDILKSGTRKDNILLGKDRLTKVWVLRNVMQQMDDIEALSFVYSKMQQTKDNEEFLNLMNEK,failed
5,MPSDGLPKNLEPLAAGDPATIGPYVLVGRLGSGGMGTVYLGRAPEKGTHVAIKVIRPELAFDEATRARFRDEMENARKVASFCTAKVLDHGTFQNRPYMVTEYIAGTALAEHIAEHGPLDSGTLHGFALGVAAALAAIHKAGLVHRDLKPANVLLSLSGPRVIDFGIARALNTSTSHTQTGIVMGSPGWMAPEQLLEEKVTTKADIFAWGCLVAFAGNGRHPFGNGDAMTLGKRMLFAEPDIGNLDPPLDRLVARALAKDPDQRPTAQELLLELAGGTDSNDTNDVVSHALHQSWRPNFPPMPPGYPPPSPQAHSGMPGPQAQAQAPGQTTIAPQPYAHPQQGGPGPMPPQAAGPQGGPQGGPQSPPMPQRPGPQASHHTGQIPVVPPTTGRQPPRSPAAQGSSGGPQARPYVPPNTLPPHRPLRPDSSRSRLLIVFAVLGAVLLAVVLVFGLVFFQDWFSSTSDTNPPGQGQEQQSSAPKEDPDDESDKSDTQAADPQAGESLRFDLLDWYCGNQVLDRPLIVNGGEYCVAEIEAHNSANYPVKFRHDLQILAHASGEQTKADAPLHGEGADPLWAGPIQPGDTVRGYLVFIVHSELTPEVLILRSTVDSPGQQIEIPSGQPA,failed
6,MTAFRQRPLRLGHRGAPLKAKENTLESFRLALEAGLDGVELDVWPTRDGVFAVRHDPDTPLGPVFQVDYADLKAQEPDLPRLEEVLALKEAFPQAVFNVELKSFPGLGEEAARRLAALLRGREGVWVSSFDPLALLALRKAAPGLPLGFLMAEDHSALLPCLGVEAVHPHHALVTEEAVAGWRKRGLFVVAWTVNEEGEARRLLALGLDGLIGDRPEVLLPLGG,not failed
7,MTYCVAMRLDAGLVFLSDSRTNAGVDAISTFRKMTVFEREGDRVMVLLTAGNLAISQAVRQVLTEARDKARSLWTARDMFEATTIVGEAVREVYDRDAAALAKAKIDFNVSIIFGGQIGGERPRLFNVYAAGNFIEATPENCYFQIGEAKYGKPIIDRLIRASLPLDEAAKCALISMDSTLKSNISVGLPLDLLVYEADSLRVTRFVAIDEENPYFAMIRSTWGKRLRQVFAEIEDPDWQTGTHPAHPLRRAGHPTAEVEPVRIAPPAAPPAAEGAAVPQRAPGPAFGQGAAAQRVAGGSHEPH,failed

# Reference: a protein production outcome set (Wang et al. 2014)
